Experimental data taken from US20120093814A1, “Fusion Proteins Comprising Canine FC Portions” (BOEHRINGER INGELHEIM INTERNATIONAL GMBH, priority 2009, published 2012).
One block for each molecule: values may come before it. Positions of bridges follow the written chain, without caps; N, C: chain ends. No end group written: not given here.

Columns and labels:
[1] = target: canine NPRA (natriuretic peptide receptor A), full length, stably expressed on HEK293 cells (canine (dog)); test: cell-based or functional assay
plasma cGMP = test: Plasma cGMP levels in conscious dogs after IV and SC administration (preliminary PKPD); format: in vivo, dog; details: single SC dose 2.5 mg/kg
Experimental: (§1) Dogs were administered a single IV dose (1 mg/kg or 17 nmol/kg) or SC dose (2.5 mg/kg or 42 nmol/kg) of ANP-caFc to assess PKPD over a period of 4 to 7 days. These doses were selected because they were similar to the dose-range employed to evaluate Cardeva (recombinant human serum albumin-BNP fusion protein) in dogs. […] The sensitivity of the ELISA used to reliably detect ANP-caFc in dog plasma was limited by having a minimum detection level in dog plasma of […]. In order to avoid plasma matrix effects, a minimum dilution of 1:50 was required when assaying beagle plasma. The linear range of the assay, in PBS, is […] to approximately 100 nM. In 2% beagle plasma the linear range of the curve is 1 nM to about 80 or 90 nM. FIG. 4 only provides an estimate of the estimated plasma levels and Table 2 presents the pharmacokinetics of ANP-caFc.
Plasma cGMP following SC dosing appeared to be elevated above baseline ≧48 hours post-dose (FIG. 5).

[2] = Pharmacokinetics of ANP-caFc in conscious dogs following a single dose; format: in vivo, dog
Experimental: as §1

[3] = system: conscious telemeterized beagles; test: Hemodynamic assessment in telemeterized conscious dogs (Study #1 and Study #2); format: in vivo, dog; details: for effect on HR (figure legend) / effect on mean arterial blood pressure (figure legend): Days 1-4 post-dose
Experimental: The criteria for dose selection was that the dose could not decrease mean arterial blood pressure more than 5-10 mmHg below baseline, and that it should increase plasma cGMP concentration approximately 1.5×-2× above baseline. […] In study #1, a total of 5 dogs were dosed subcutaneously with vehicle, or ANP-caFc at 0.5, 1 and 2.5 mg/kg based on a modified Latin square design over a 4-week period. This dose-range was chosen because it was expected to overlap the targeted plasma cGMP elevation based on the single dose dog PK study. The dosing interval was 7 days. One animal was excluded from the final data analysis due to a failure of telemetry device during the study. ANP-caFc produced a dose-dependent increase in peak plasma levels of cGMP (3.7-, 3.5- and 6.6-fold—of vehicle day value FIG. 6), a dose-dependent peak reduction in mean arterial blood pressure (MAP; −13±5, −19±4, and −20±5 mmHg vs. vehicle—FIGS. 7A and 7B), and peak heart rate was increased (+30 ±10, +29 ±9, and +25 ±9 beats per minute—FIGS. 8A and 8B).
Since the MAP decreased more than 10 mmHg during the peak effect for all three doses, Study #2 was performed with lower doses (0.05 and 0.25 mg/kg) in the same 4 dogs using a similar study design. […] The 0.05 mg/kg dose of ANP-caFc had no effect of MAP (1.9±1.4 mmHg), HR (1.8±0.6 beats per minute), or plasma cGMP. (Urine samples were also collected for cGMP excretion measurements, however, samples were contaminated by drinking water and could not be used.)

[4] = target: T1, canine NPRA (natriuretic peptide receptor A), full length, stably expressed on HEK293 cells (canine (dog), UniProt A0A8I3MHU3 32-1060); test: cell-based or functional assay
T1 sequence: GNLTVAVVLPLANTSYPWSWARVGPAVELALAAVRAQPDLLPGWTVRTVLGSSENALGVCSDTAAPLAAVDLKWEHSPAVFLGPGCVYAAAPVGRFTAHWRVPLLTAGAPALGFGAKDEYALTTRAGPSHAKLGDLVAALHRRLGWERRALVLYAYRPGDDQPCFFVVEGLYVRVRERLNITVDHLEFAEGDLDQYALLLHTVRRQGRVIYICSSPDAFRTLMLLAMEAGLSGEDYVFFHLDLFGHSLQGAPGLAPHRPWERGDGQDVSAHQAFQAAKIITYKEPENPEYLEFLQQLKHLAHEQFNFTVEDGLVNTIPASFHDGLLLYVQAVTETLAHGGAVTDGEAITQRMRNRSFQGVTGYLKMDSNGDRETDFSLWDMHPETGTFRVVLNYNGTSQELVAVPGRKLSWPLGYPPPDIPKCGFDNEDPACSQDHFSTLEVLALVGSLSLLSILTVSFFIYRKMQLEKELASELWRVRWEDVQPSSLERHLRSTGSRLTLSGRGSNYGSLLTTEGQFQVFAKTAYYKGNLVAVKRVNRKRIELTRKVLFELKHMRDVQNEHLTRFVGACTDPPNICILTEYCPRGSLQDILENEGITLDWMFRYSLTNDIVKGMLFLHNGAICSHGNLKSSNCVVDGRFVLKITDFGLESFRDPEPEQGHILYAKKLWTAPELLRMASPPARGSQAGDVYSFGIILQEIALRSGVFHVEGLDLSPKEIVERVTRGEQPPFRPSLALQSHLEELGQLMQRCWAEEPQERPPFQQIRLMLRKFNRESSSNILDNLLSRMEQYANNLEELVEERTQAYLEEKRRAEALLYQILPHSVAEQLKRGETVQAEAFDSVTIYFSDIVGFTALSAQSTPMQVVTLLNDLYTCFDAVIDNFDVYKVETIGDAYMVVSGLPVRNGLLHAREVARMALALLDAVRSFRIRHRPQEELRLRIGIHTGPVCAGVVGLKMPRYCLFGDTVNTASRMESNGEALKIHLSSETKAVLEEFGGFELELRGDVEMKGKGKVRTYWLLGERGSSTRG

[5] = target: T1, canine NPRA (natriuretic peptide …); test: cell-based or functional assay; remark: listed apart in the source
[6] = single IV dose 1 mg/kg (17 nmol/kg)
[7] = single SC dose 2.5 mg/kg (42 nmol/kg)

cGMP EC50 (nM), Dog NPRA; lot 8760-110.3 [1]: 3 nM | cGMP EC50 (nM), Dog NPRA; lot 8760-137 [1]: 2.5 nM | cGMP EC50 (nM), Dog NPRA; lot 8760-174 [1]: 5.4 nM | cGMP EC50 (nM), Dog NPRA; lot 9081-51 [1]: 8.3 nM | cGMP EC50 (nM), Dog NPRA; lot 9081-53 [1]: 9.4 nM
B1: ANP28-20aa-CalgGB-Fc (recombinant canine ANP28 - (GGS)6GG linker - canine IgG-B Fc fusion protein) (Fc fusion)
chain: SLRRSSCFGGRMDRIGAQSGLGCNSFRYGGSGGSGGSGGSGGSGGSGGCPKCPAPEMLGGPSVFIFPPKPKDTLLIARTPEVTCVVVDLDPEDPEVQISWFVDGKQMQTAKTQPREEQFNGTYRVVSVLPIGHQDWLKGKQFTCKVNNKALPSPIERTISKARGQAHQPSVYVLPPSREELSKNTVSLTCLIKDFFPPDIDVEWQSNGQQEPESKYRTTPPQLDEDGSYFLYSKLSVDKSRWQRGDTFICAVMHEALHNHYTQESLSHSPGK
modifications: C-terminal Lysine residue missing in all lots produced (mass spectrometry); Fc glycosylated (G0, G1, G2)

B2: ANP-caFc: canine ANP-Fc fusion protein dosed to dogs; Fc isotype not stated, nmol/kg doses fit the IgG-B fusion (protein)
chain: SLRRSSCFGGRMDRIGAQSGLGCNSFRYGGSGGSGGSGGSGGSGGSGGCPKCPAPEMLGGPSVFIFPPKPKDTLLIARTPEVTCVVVDLDPEDPEVQISWFVDGKQMQTAKTQPREEQFNGTYRVVSVLPIGHQDWLKGKQFTCKVNNKALPSPIERTISKARGQAHQPSVYVLPPSREELSKNTVSLTCLIKDFFPPDIDVEWQSNGQQEPESKYRTTPPQLDEDGSYFLYSKLSVDKSRWQRGDTFICAVMHEALHNHYTQESLSHSPGK
time plasma cGMP elevated above baseline post-dose (plasma cGMP): ≥ 48 h | AUC [2, 6]: 2.0 ± 0.46 µM·h | MRT [2, 6]: 12.2 ± 1.9 h | T½ [2, 6]: 8.3 ± 2.0 h | Vss [2, 6]: 0.107 ± 0.013 L/kg | AUC [2, 7]: 6.1 ± 0.3 µM·h | MRT [2, 7]: 41.6 ± 1.0 h | T½ [2, 7]: 15.4 ± 1.8 h | increase in peak plasma levels of cGMP, of vehicle day value ([3]; Study #1, SC 0.5 mg/kg): 3.7 fold | peak heart rate increase ([3]; Study #1, SC 0.5 mg/kg): +30 ±10 beats per minute | peak reduction in mean arterial blood pressure (MAP) vs. vehicle ([3]; Study #1, SC 0.5 mg/kg): −13±5 mmHg | increase in peak plasma levels of cGMP, of vehicle day value ([3]; Study #1, SC 1 mg/kg): 3.5 fold | peak heart rate increase ([3]; Study #1, SC 1 mg/kg): +29 ±9 beats per minute | peak reduction in mean arterial blood pressure (MAP) vs. vehicle ([3]; Study #1, SC 1 mg/kg): −19±4 mmHg | increase in peak plasma levels of cGMP, of vehicle day value ([3]; Study #1, SC 2.5 mg/kg): 6.6 fold | peak heart rate increase ([3]; Study #1, SC 2.5 mg/kg): +25 ±9 beats per minute | peak reduction in mean arterial blood pressure (MAP) vs. vehicle ([3]; Study #1, SC 2.5 mg/kg): −20±5 mmHg | effect on HR (figure legend) ([3]; Study #1, subcutaneous): dose-dependently increased | effect on mean arterial blood pressure (figure legend) ([3]; Study #1, subcutaneous): dose-dependently decreased | change in HR ([3]; Study #2, SC 0.05 mg/kg): 1.8±0.6 beats per minute | change in MAP ([3]; Study #2, SC 0.05 mg/kg): 1.9±1.4 mmHg | effect on plasma cGMP ([3]; Study #2, SC 0.05 mg/kg): no effect | change in MAP vs. vehicle ([3]; Study #2, SC 0.25 mg/kg): −6.6±1.6 mmHg | effect on plasma cGMP ([3]; Study #2, SC 0.25 mg/kg): moderate increase | increase in heart rate ([3]; Study #2, SC 0.25 mg/kg): 20±9 beats per minute | effect on HR (figure legend) ([3]; Study #2, subcutaneous): dose-dependently increased | effect on mean arterial blood pressure (figure legend) ([3]; Study #2, subcutaneous): dose-dependently decreased

EC50 in the canine NPRA cGMP assay [4]: ~1 nM | cGMP EC50 (nM), cGMP induction on canine NPRA cells [5]: 0.2 nM
B3: canine ANP28 (peptide)
peptide: SLRRSSCFGGRMDRIGAQSGLGCNSFRY
modifications: disulfide 7-23 (inferred)
